# PMC10563079 (Molecules, 2023)
# Bridge positions count the residues as written; N and C are the ends. Ends that are not written are not given here. Peptide text beside a SMILES is read from it.
# B1: double constrained cyclic peptide cyc2-6 (peptide)
# peptide: CTPQATACMLDGKWCEKKC
# modifications: disulfide 1-19, 8-15; not fully specified (N-terminus); printed as C_1_TPQA TAC_8_ML DGKWC_15_ EKKC_19_
# B2: double constrained cyclic peptide cyc2-2 (peptide)
# peptide: CTPQATACMLDGKWCRKKC
# modifications: disulfide 1-19, 8-15; not fully specified (N-terminus); printed as C_1_TPQA TAC_8_ML DGKWC_15_ RKKC_19_
# B3: cyclic peptide cyc1-1 (peptide)
# peptide: CTPQATASMKDGKWERKKC
# modifications: disulfide 1-19; not fully specified (N-terminus); printed as C_1_TPQATASMKDGKWERKKC_19_
# B4: double constrained cyclic peptide cyc2-4 (peptide)
# peptide: CTPQATACMWDGKWCRKKC
# modifications: disulfide 1-19, 8-15; not fully specified (N-terminus); printed as C_1_TPQA TAC_8_MW DGKWC_15_ RKKC_19_
# B5: double constrained cyclic peptide cyc2-5 (peptide)
# peptide: CTPQATACMKDGKWCWKKC
# modifications: disulfide 1-19, 8-15; not fully specified (N-terminus); printed as C_1_TPQA TAC_8_MK DGKWC_15_ WKKC_19_
# B6: cyclic peptide cyc1-3 (peptide)
# peptide: CTPQATKSMLDGKWEEKKC
# modifications: disulfide 1-19; not fully specified (N-terminus); printed as C_1_TPQA TKSML DGKWE EKKC_19_
# B7: cyclic peptide cyc1-7 (peptide)
# peptide: CTPQATLTMKDGKWEEKKC
# modifications: disulfide 1-19; not fully specified (N-terminus); printed as C_1_TPQA TLTMK DGKWE EKKC_19_
# Tests used:
# [1] = target: T1, full-length PHGDH (1-533) (Homo sapiens, UniProt O43175); assay: full-length PHGDH enzyme activity assay (NADH fluorescence); format: biochemical; settings: read-out: IC50 value (μM), full-length PHGDH activity
# T1 construct: the full-length PHGDH (1-533); made in house
# T1 sequence (O43175 1-533): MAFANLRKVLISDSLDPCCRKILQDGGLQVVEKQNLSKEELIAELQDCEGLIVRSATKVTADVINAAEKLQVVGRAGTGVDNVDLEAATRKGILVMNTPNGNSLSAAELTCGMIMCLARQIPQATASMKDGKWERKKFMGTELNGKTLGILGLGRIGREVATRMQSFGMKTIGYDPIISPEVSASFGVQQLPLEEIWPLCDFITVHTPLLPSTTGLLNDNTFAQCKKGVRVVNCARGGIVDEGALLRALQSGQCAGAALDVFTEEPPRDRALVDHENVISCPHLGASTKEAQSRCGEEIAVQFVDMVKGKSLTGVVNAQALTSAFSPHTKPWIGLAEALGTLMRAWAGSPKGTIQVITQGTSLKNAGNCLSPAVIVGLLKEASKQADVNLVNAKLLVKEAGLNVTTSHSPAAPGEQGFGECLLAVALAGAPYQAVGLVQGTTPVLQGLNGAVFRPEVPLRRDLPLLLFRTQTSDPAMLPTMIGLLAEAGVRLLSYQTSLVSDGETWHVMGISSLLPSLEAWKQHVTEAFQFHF
# Protocol: (§1) PHGDH activity in the presence of peptides was measured in 96-well plates (100 μL per well) at 25 °C, through monitoring the NADH fluorescence (excitation at 360 nm and emission at 460 nm) over time. PAST1 and its substrate glutamate were also included in order to prevent product inhibition. In the enzyme assays, protein expression and purification, including the truncated version of PHGDH (sPHGDH, 1-307), the full-length PHGDH (1-533), and PAST1, were carried out as described in our previous papers. To evaluate the effects of peptides on enzyme activity, the peptides were pre-incubated with enzyme samples (sPHGDH 453.3 nM or PHGDH 30.9 nM) in the assay buffer (HEPES 50 mM, pH 7.5, 10 mM MgCl2, and 1 mM EDTA) for 12 h. Then, 1.98 μM PAST1, 1 mM NAD^+, and 30 mM glutamate were added and pre-incubated for 10 min before initiating the enzyme reaction via the addition of the substrate (1 mM 3-PG). Fluorescence signals were recorded for 3 min with the kinetics-reading mode of the Biotek plate reader (Synergy). IC50 values were obtained through fitting the data using a three-parameter Hill model of the graph of log dose against the percentage inhibition from three repeated experiments. For those peptides containing two disulfide bonds, a second step of oxidation reaction was carried out to generate the second disulfide pair. […] The purified Acm-protected peptide was then treated with iodine (I2, 1 wt% in MeOH), dropwise under acidic conditions until the solution became brown.
# sPHGDH (1-307) = target: T2, sPHGDH (1-307) (Homo sapiens, UniProt O43175); assay: sPHGDH enzyme activity assay (NADH fluorescence); format: biochemical; settings: sPHGDH; for Inhibition Rate (%): peptide concentration of 50 µM
# T2 construct: the truncated version of PHGDH (sPHGDH, 1-307); made in house
# T2 sequence (O43175 1-307): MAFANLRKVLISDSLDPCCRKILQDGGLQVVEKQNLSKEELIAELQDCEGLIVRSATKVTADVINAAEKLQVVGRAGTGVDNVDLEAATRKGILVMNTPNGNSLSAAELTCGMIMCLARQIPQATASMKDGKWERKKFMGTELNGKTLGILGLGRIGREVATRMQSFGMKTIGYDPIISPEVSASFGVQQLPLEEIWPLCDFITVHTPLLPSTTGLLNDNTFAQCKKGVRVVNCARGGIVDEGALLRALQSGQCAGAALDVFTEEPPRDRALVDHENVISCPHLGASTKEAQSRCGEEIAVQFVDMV
# Protocol: as §1
# [2] = target: truncated version of PHGDH (sPHGDH, 1-307) (human) (UniProt O43175)
molecule,measurement,setting,value
"CSCC[C@@H]1NC(=O)[C@H](CO)NC(=O)[C@H](CC(C)C)NC(=O)[C@H]([C@@H](C)O)NC(=O)[C@H](C)NC(=O)[C@H](CCC(N)=O)NC(=O)[C@@H]2CCCN2C(=O)[C@H]([C@@H](C)O)NC(=O)[C@@H](NC(C)=O)CSSC[C@@H](C(=O)O)NC(=O)[C@H](CCCCN)NC(=O)[C@H](CCCCN)NC(=O)[C@H](CCC(=O)O)NC(=O)[C@H](CCC(=O)O)NC(=O)[C@H](Cc2c[nH]c3ccccc23)NC(=O)[C@H](CCCCN)NC(=O)CNC(=O)[C@H](CC(=O)O)NC(=O)[C@H](CCCCN)NC1=O [Cyc1-2, C1TPQA TLSMK DGKWE EKKC19] (Ac-CTPQATLSMKDGKWEEKKC-OH; disulfide 1-19)",IC50,[1],20.1 ± 2.6 µM
"CSCC[C@@H]1NC(=O)[C@H](CO)NC(=O)[C@H](C)NC(=O)[C@H]([C@@H](C)O)NC(=O)[C@H](C)NC(=O)[C@H](CCC(N)=O)NC(=O)[C@@H]2CCCN2C(=O)[C@H]([C@@H](C)O)NC(=O)[C@@H](NC(C)=O)CSSC[C@@H](C(=O)O)NC(=O)[C@H](CCCCN)NC(=O)[C@H](CCCCN)NC(=O)[C@H](Cc2c[nH]c3ccccc23)NC(=O)[C@H](CCC(=O)O)NC(=O)[C@H](Cc2c[nH]c3ccccc23)NC(=O)[C@H](CCCCN)NC(=O)CNC(=O)[C@H](CC(=O)O)NC(=O)[C@H](CC(C)C)NC1=O [Cyc1-5, C1TPQA TASML DGKWE WKKC19] (Ac-CTPQATASMLDGKWEWKKC-OH; disulfide 1-19)",IC50,"sPHGDH (1-307); 12 h pre-incubation, read-out: IC50 Value",13.4 ± 2 µM
same,IC50,[1],37.1 ± 1.7 µM
"CSCC[C@@H]1NC(=O)[C@H](CO)NC(=O)[C@H](C)NC(=O)[C@H]([C@@H](C)O)NC(=O)[C@H](C)NC(=O)[C@H](CCC(N)=O)NC(=O)[C@@H]2CCCN2C(=O)[C@H]([C@@H](C)O)NC(=O)[C@@H](NC(C)=O)CSSC[C@@H](C(=O)O)NC(=O)[C@H](CCCCN)NC(=O)[C@H](CCCCN)NC(=O)[C@H](CCC(=O)O)NC(=O)[C@H](CCC(N)=O)NC(=O)[C@H](Cc2c[nH]c3ccccc23)NC(=O)[C@H](CO)NC(=O)CNC(=O)[C@H](CC(N)=O)NC(=O)[C@H](CCCCN)NC1=O [Cyc1-9, C1TPQA TASMK NGSWQ EKKC19] (Ac-CTPQATASMKNGSWQEKKC-OH; disulfide 1-19)",IC50,[1],56.1 ± 3.4 µM
"C1TPQA TAC8MK DGKWC15 WKKC19 (CTPQATACMKDGKWCWKKC; disulfide 1-19, 8-15; not fully specified (N-terminus); printed as C_1_TPQA TAC_8_MK DGKWC_15_ WKKC_19_) [Cyc2-5, cyc2-1 with R16W]",Inhibition Rate (%),sPHGDH (1-307),27%
"C1TPQA TAC8MW DGKWC15 RKKC19 (CTPQATACMWDGKWCRKKC; disulfide 1-19, 8-15; not fully specified (N-terminus); printed as C_1_TPQA TAC_8_MW DGKWC_15_ RKKC_19_) [Cyc2-4, cyc2-1 with K10W]",Inhibition Rate (%),sPHGDH (1-307),44%
"C1TPQA TASMK DGKWE RKKC19 (CTPQATASMKDGKWERKKC; disulfide 1-19; not fully specified (N-terminus); printed as C_1_TPQATASMKDGKWERKKC_19_) [Cyc1-1, head-to-tail disulfide-cyclized peptide (C1-C19) from the PHGDH dimerization loop]",Inhibition Rate (%),sPHGDH (1-307),40%
same,inhibitory activity on sPHGDH (in words),sPHGDH (1-307),limited activity
"C1TPQA TESML RGKWE EKKC19 (CTPQATESMLRGKWEEKKC; disulfide 1-19; not fully specified (N-terminus); printed as C_1_TPQA TESML RGKWE EKKC_19_) [Cyc1-4, single disulfide cyclic peptide with A7E and D11R]",Inhibition Rate (%),sPHGDH (1-307),None
same,inhibitory activity on sPHGDH (in words),sPHGDH (1-307),largely decreased or abolished the activity
"C1TPQA TKSML DGKWE EKKC19 (CTPQATKSMLDGKWEEKKC; disulfide 1-19; not fully specified (N-terminus); printed as C_1_TPQA TKSML DGKWE EKKC_19_) [Cyc1-3, single disulfide cyclic peptide with substitution A7K]",Inhibition Rate (%),sPHGDH (1-307),19%
same,inhibitory activity on sPHGDH (in words),sPHGDH (1-307),largely decreased or abolished the activity
"C1TPQA TLLMK DGKWE EKKC19 (CTPQATLLMKDGKWEEKKC; disulfide 1-19; not fully specified (N-terminus); printed as C_1_TPQA TLLMK DGKWE EKKC_19_) [Cyc1-8, cyc1-2 with substitution S8L]",Inhibition Rate (%),sPHGDH (1-307),None
same,inhibitory activity on sPHGDH (in words),sPHGDH (1-307),completely eliminated the activity
"C1TPQA TLSMK NGSWQ EKKC19 (CTPQATLSMKNGSWQEKKC; disulfide 1-19; not fully specified (N-terminus); printed as C_1_TPQA TLSMK NGSWQ EKKC_19_) [Cyc1-10, cyc1-9 with added A7L]",Inhibition Rate (%),sPHGDH (1-307),None
same,inhibitory activity on sPHGDH (in words),sPHGDH (1-307),inactive
B1,IC50 of inhibition of sPHGDH enzyme activity (NADH fluorescence); the pair blocked is the sPHGDH homo-dimer (m1+m1),[2],15 µM
B2,IC50 of inhibition of sPHGDH enzyme activity (NADH fluorescence); the pair blocked is the sPHGDH homo-dimer (m1+m1),[2],9.4 µM
B3,Inhibition rate of sPHGDH enzyme activity (NADH fluorescence) at 50 µM peptide; the pair blocked is the sPHGDH homo-dimer (m1+m1),[2],40%
B4,Inhibition rate of sPHGDH enzyme activity (NADH fluorescence) at 50 µM peptide; the pair blocked is the sPHGDH homo-dimer (m1+m1),[2],44%
B5,Inhibition rate of sPHGDH enzyme activity (NADH fluorescence) at 50 µM peptide; the pair blocked is the sPHGDH homo-dimer (m1+m1),[2],27%
B6,Inhibition rate of sPHGDH enzyme activity (NADH fluorescence) at 50 µM peptide; the pair blocked is the sPHGDH homo-dimer (m1+m1),[2],19%
B7,IC50 of inhibition of sPHGDH enzyme activity (NADH fluorescence); the pair blocked is the sPHGDH homo-dimer (m1+m1),[2],5.6 µM
